Test results reported in US12359237.
Numbering of substitutions follows the chain as printed.

Legend:
[1] = test system: T1, 4SCSC7_4AAAA7 precursor peptide
T1 sequence: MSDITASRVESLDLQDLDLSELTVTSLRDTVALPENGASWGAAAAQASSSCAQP

[2] = test system: T2, S10A mutant precursor peptide of LazA*
T2 sequence: T1 sequence with A42S, A43C, A44S, A45C, S48A

[3] = test system: T3, C13A mutant precursor peptide of LazA*
T3 sequence: T1 sequence with A42S, A43C, A44S, A45C, C51A

[4] = test system: T4, S12A mutant precursor peptide of LazA*
T4 sequence: T1 sequence with A42S, A43C, A44S, A45C, S50A

[5] = test system: T5, S11A mutant precursor peptide of LazA*
T5 sequence: T1 sequence with A42S, A43C, A44S, A45C, S49A

Substance: LazC (macrocyclase of lactazole biosynthesis, His-Tag-bound recombinant protein)
- leader peptide elimination (LC-MS chromatogram of the leader peptide cleaved off through LazC reaction) [1]: Leader peptide elimination was also seen in the 4SCSC7_4AAAA7 precursor peptide at a level equivalent to LazA*
- leader peptide cleaved off through LazC reaction (LC-MS chromatogram) [2]: Ser (10) and Cys (13) are also relatively important
- leader peptide cleaved off through LazC reaction (LC-MS chromatogram) [3]: A leader peptide cleaved off was slightly seen in S11A and C13A
- leader peptide cleaved off through LazC reaction (LC-MS chromatogram) [4]: such a leader peptide was hardly seen in S11A and S12A
- leader peptide cleaved off through LazC reaction (LC-MS chromatogram) [5]: such a leader peptide was hardly seen in S11A and S12A
